According to publication PMC2916881:

Tests used:
human fibrinogen (human) = human fibrinogen (human) (UniProt P02671); experiment: SPR; BIAcore 3000, CM5 chip; human prothrombin and human fibrinogen amine-linked, Coa or vWbp injected in HBS-P (20 mM HEPES pH 7.4, 150 mM NaCl, 0.005% P20), flow 2 uL/min; 1:1 binding model with drifting baseline and local Rmax (the legend of Figure S5 tells the opposite orientation)
[1] = molecular target: human prothrombin (human); experiment: as above

Sequence of UniProt P02671 (P02671 36-866, chain 1 of 3): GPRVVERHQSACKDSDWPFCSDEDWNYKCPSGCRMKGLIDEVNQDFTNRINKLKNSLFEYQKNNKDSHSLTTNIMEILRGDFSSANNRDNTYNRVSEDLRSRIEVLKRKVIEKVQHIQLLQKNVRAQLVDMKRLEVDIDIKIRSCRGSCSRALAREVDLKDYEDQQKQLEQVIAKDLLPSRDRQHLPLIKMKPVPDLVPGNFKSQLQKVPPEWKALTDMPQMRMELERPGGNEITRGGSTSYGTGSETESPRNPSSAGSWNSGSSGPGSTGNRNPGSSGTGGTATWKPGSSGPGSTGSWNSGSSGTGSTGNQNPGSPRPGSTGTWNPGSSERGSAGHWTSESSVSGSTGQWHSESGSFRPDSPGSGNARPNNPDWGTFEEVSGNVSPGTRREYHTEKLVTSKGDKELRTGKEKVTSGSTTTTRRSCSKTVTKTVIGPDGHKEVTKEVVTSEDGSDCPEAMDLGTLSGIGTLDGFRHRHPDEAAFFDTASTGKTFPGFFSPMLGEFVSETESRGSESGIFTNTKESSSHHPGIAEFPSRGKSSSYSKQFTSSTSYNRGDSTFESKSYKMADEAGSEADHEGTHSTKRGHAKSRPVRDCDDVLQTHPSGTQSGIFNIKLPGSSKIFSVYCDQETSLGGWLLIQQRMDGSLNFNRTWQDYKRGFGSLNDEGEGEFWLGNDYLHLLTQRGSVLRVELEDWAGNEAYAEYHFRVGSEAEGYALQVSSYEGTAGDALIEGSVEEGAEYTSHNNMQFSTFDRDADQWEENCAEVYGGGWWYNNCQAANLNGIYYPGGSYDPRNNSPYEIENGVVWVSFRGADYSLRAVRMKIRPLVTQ
Sequence of UniProt P02671 (P02675 45-491, chain 2 of 3, further chain): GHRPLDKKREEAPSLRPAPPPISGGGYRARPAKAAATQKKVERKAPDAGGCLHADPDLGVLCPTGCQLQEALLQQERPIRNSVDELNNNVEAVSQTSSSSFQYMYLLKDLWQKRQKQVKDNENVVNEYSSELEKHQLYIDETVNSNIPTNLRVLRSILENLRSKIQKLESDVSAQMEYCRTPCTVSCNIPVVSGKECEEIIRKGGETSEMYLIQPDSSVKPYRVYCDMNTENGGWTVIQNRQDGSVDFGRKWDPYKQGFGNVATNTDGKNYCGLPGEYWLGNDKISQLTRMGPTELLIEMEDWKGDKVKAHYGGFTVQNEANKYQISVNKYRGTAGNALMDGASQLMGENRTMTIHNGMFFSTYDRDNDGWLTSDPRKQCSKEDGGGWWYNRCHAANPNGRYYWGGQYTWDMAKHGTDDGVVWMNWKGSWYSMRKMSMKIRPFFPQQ
Sequence of UniProt P02671 (P02679 27-453, chain 3 of 3, further chain): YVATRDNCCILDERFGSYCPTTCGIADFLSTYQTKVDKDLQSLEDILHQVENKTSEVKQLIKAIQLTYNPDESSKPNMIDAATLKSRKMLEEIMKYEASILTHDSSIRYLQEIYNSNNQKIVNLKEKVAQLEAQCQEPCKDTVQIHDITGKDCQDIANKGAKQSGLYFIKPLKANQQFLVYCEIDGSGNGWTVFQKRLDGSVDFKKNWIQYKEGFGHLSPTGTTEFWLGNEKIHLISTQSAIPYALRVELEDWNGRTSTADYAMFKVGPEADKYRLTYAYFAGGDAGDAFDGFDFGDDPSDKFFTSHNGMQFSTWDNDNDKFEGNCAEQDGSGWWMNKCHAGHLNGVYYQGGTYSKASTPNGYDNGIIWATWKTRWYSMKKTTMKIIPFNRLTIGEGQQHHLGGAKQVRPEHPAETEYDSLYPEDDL

S. aureus Newman Coagulase (natural protein)
Kd (human fibrinogen (human)): 33 nM
Kd [1]: 5 nM

S. aureus Newman von Willebrand factor binding protein (natural protein)
Kd (human fibrinogen (human)): 271 nM
Kd [1]: 98 nM
